Results taken from doi:10.1101/2022.04.04.486996 (bioRxiv, 2022).

T1: E. coli ketosynthase FabF (E. coli, UniProt P0AAI5 1-413)
T1 sequence: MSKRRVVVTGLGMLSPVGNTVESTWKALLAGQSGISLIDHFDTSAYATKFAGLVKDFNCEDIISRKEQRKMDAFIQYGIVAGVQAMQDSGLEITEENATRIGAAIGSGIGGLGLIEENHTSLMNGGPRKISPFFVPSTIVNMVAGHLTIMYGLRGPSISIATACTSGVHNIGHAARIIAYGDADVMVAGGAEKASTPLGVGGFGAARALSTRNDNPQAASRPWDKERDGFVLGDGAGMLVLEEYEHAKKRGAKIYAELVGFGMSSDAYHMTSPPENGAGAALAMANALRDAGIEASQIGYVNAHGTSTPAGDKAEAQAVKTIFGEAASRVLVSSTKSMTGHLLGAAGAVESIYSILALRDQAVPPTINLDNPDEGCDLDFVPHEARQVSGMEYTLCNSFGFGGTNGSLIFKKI

B1: E. coli ketosynthase FabB (enzyme)
chain: MKRAVITGLGIVSSIGNNQQEVLASLREGRSGITFSQELKDSGMRSHVWGNVKLDTTGLIDRKVVRFMSDASIYAFLSMEQAIADAGLSPEAYQNNPRVGLIAGSGGGSPRFQVFGADAMRGPRGLKAVGPYVVTKAMASGVSACLATPFKIHGVNYSISSACATSAHCIGNAVEQIQLGKQDIVFAGGGEELCWEMACEFDAMGALSTKYNDTPEKASRTYDAHRDGFVIAGGGGMVVVEELEHALARGAHIYAEIVGYGATSDGADMVAPSGEGAVRCMKMAMHGVDTPIDYLNSHGTSTPVGDVKELAAIREVFGDKSPAISATKAMTGHSLGAAGVQEAIYSLLMLEHGFIAPSINIEELDEQAAGLNIVTETTDRELTTVMSNSFGFGGTNATLVMRKLKD
B2: ACP loaded with the (Z)-C14Cl chloroacrylate crosslinking probe (crypto-ACP) (natural protein, E. coli)
chain: STIEERVKKIIGEQLGVKQEEVTNNASFVEDLGADSLDTVELVMALEEEFDTEIPDEEAEKITTVQAAIDYINGHQA
modifications: S36 carries the 4'-phosphopantetheine analogue with the (Z)-C14Cl (C14-chloroacrylate) crosslinking probe

Tests used:
crystal structure = target: the molecule itself; test: crystal structure
[1] = target: T1, E. coli ketosynthase FabF; test: cross-linking

Binder | stoichiometry N (crystal structure) | binding result [1]
B1 | 2 | –
B2 | – | binds
